Molecular target: native OspA on the surface of live B. burgdorferi B31 (Borrelia burgdorferi strain B31 …, UniProt P0CL66)
Experiment: flow cytometry on cells

native OspA on the surface of live B. burgdorferi B31, sequence (P0CL66 17-273): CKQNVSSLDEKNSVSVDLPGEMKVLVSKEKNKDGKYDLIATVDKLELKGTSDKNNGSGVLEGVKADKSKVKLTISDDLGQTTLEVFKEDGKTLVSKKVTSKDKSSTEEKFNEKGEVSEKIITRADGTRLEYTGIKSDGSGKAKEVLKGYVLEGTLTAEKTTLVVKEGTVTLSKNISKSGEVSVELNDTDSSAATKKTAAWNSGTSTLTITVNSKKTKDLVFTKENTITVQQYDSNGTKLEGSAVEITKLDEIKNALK

binding result: binds
B1: LA-2 (bin 3 OspA monoclonal antibody; chimeric LA-2 IgG1) (antibody, V domains shown)
VH: QIQLVQSGPELKKPGETVKISCKASGYTFTDYSMYWVKQAPGKGLKRMGWINTETGEPTYADDFKGRFALSLDTSASTAYLHISNLKNEDTATYFCARGLDSWGQGTSVTVSS
VL: DIQMTQSPSSLSATLGGKVTITCKASQDINKYIAWYQHKPGKGPRLLIHYTSTLQPGNPSRFSGSGSGRDYSFSISNLEAEDIAIYYCLQYDNLQRTFGGGTKVEIK
